In patent US20140127212A1 (AstraZeneca / MedImmune, published 2014):

Target: T1, cynomolgus IgE (recombinant chimaeric D12 variable region and cynomolgus IgE constant region) (cynomolgus monkey (constant region); …)
T1 construct: The entries may hold a leader peptide; also called cyno IgE; cynomolgus monkey IgE
Assay: HTRF competition; scFv titrated vs Eu-cryptate cynomolgus IgE binding to human FcεRI-Fc; geomean

T1 sequence (heavy, as listed by the source limits assumed, chain 1 of 2): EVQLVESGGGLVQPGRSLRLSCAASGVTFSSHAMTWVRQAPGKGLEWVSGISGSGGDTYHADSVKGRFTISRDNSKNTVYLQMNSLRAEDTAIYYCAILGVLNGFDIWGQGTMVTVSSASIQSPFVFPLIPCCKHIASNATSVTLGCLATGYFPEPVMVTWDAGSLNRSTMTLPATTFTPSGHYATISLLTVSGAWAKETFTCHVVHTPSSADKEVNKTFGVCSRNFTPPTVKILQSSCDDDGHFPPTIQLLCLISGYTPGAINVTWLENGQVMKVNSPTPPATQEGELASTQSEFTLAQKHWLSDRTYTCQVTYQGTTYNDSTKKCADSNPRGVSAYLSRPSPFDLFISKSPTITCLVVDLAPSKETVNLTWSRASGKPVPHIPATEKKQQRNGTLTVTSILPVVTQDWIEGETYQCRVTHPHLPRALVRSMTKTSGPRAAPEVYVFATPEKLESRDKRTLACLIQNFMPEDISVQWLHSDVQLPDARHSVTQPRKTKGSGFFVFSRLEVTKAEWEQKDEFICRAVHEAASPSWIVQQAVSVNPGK
T1 sequence (light, as listed by the source limits assumed, chain 2 of 2): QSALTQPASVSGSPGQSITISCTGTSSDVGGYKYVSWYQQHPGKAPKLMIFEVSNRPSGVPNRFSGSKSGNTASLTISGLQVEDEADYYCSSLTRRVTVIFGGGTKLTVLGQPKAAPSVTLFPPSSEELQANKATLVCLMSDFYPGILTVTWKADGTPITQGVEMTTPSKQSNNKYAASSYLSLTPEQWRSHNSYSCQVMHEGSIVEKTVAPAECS

Binder | IC50 [nM]
Antibody 2 scFv (scFv, V domains shown, Purified scFv) VH: QVQLVQSGAEVKKPGATVKLSCKVYGYIFTDYNIYWVRQAPGKGLEWMGLIDPDNGETFYAEKFQGRATMTADTSSDRAYMELTSLTFEDTATYYCATVSLRSAKGGYDYWGRGTLVTVSS VL: QSVLTQPPSVSGAPGQRVTISCTGSSSNIGAGYDVHWYQQLPGTAPKLLIYDNFNRPSGVPDRFSGSKSGTSASLAIIGLQTEDEADYYCQSYDSSLSGSLFGTGTKLTVL | 317
Antibody 3 scFv (scFv, V domains shown, Purified scFv) VH: QVQLVQSGAEVKKPGATVKLSCKVYGYIFTDYNIYWVRQAPGKGLEWMGLIDPDNGETFYAEKFQGRATMTADTSSDRAYMELTSLTFEDTATYYCATVMGKWIKGGYDYWGRGTLVTVSS VL: QSVLTQPPSVSGAPGQRVTISCTGSSSNIGAGYDVHWYQQLPGTAPKLLIYDNFNRPSGVPDRFSGSKSGTSASLAIIGLQTEDEADYYCQSYDSTFNHAPFGTGTKLTVL | 18
Antibody 4 scFv (scFv, V domains shown, Purified scFv) VH: QVQLVQSGAEVKKPGATVKLSCKVYGYIFTDYNIYWVRQAPGKGLEWMGLIDPDNGETFYAEKFQGRATMTADTSSDRAYMELTSLTFEDTATYYCATVMGKWIKGGYDYWGRGTLVTVSS VL: QSVLTQPPSVSGAPGQRVTISCTGSSSNIGAGYDVHWYQQLPGTAPKLLIYDNFNRPSGVPDRFSGSKSGTSASLAIIGLQTEDEADYYCQSYDSRGGHSPFGTGTKLTVL | 5
Antibody 5 scFv (scFv, V domains shown, Purified scFv) VH: QVQLVQSGAEVKKPGATVKLSCKVYGYIFTDYNIYWVRQAPGKGLEWMGLIDPDNGETFYAEKFQGRATMTADTSSDRAYMELTSLTFEDTATYYCATVMGKWIKGGYDYWGRGTLVTVSS VL: QSVLTQPPSVSGAPGQRVTISCTGSSSNIGAGYDVHWYQQLPGTAPKLLIYDNFNRPSGVPDRFSGSKSGTSASLAIIGLQTEDEADYYCQSYDSTKHTSPFGTGTKLTVL | 6
Antibody 6 scFv (scFv, V domains shown, Purified scFv) VH: QVQLVQSGAEVKKPGATVKLSCKVYGYIFTDYNIYWVRQAPGKGLEWMGLIDPDNGETFYAEKFQGRATMTADTSSDRAYMELTSLTFEDTATYYCATVMGKWIKGGYDYWGRGTLVTVSS VL: QSVLTQPPSVSGAPGQRVTISCTGSSSNIGAGYDVHWYQQLPGTAPKLLIYDNFNRPSGVPDRFSGSKSGTSASLAIIGLQTEDEADYYCQSYDSTMRHGPFGTGTKLTVL | 11
Antibody 7 scFv (scFv, V domains shown, Purified scFv) VH: QVQLVQSGAEVKKPGATVKLSCKVYGYIFTDYNIYWVRQAPGKGLEWMGLIDPDNGETFYAEKFQGRATMTADTSSDRAYMELTSLTFEDTATYYCATVTLKSAKGGYDYWGRGTLVTVSS VL: QSVLTQPPSVSGAPGQRVTISCTGSSSNIGAGYDVHWYQQLPGTAPKLLIYDNFNRPSGVPDRFSGSKSGTSASLAIIGLQTEDEADYYCQSYDSDRRNSPFGTGTKLTVL | 186
Antibody 8 scFv (scFv, V domains shown, Purified scFv) VH: QVQLVQSGAEVKKPGATVKLSCKVYGYIFTDYNIYWVRQAPGKGLEWMGLIDPDNGETFYAEKFQGRATMTADTSSDRAYMELTSLTFEDTATYYCATVLGRWIKGGYDYWGRGTLVTVSS VL: QSVLTQPPSVSGAPGQRVTISCTGSSSNIGAGYDVHWYQQLPGTAPKLLIYDNFNRPSGVPDRFSGSKSGTSASLAIIGLQTEDEADYYCQSYDSPTHTSPFGTGTKLTVL | 12
Antibody 9 scFv (scFv, V domains shown, Purified scFv) VH: QVQLVQSGAEVKKPGATVKLSCKVYGYIFTDYNIYWVRQAPGKGLEWMGLIDPDNGETFYAEKFQGRATMTADTSSDRAYMELTSLTFEDTATYYCATVTLRSAKGGYDYWGRGTLVTVSS VL: QSVLTQPPSVSGAPGQRVTISCTGSSSNIGAGYDVHWYQQLPGTAPKLLIYDNFNRPSGVPDRFSGSKSGTSASLAIIGLQTEDEADYYCQSYDSPSSTSPFGTGTKLTVL | 132
Antibody 10 scFv (scFv, V domains shown, Purified scFv) VH: QVQLVQSGAEVKKPGATVKLSCKVYGYIFTDYNIYWVRQAPGKGLEWMGLIDPDNGETFYAEKFQGRATMTADTSSDRAYMELTSLTFEDTATYYCATVSLRAAKGGYDYWGRGTLVTVSS VL: QSVLTQPPSVSGAPGQRVTISCTGSSSNIGAGYDVHWYQQLPGTAPKLLIYDNFNRPSGVPDRFSGSKSGTSASLAIIGLQTEDEADYYCQSYDSEQELAPFGTGTKLTVL | 116
Antibody 11 scFv (scFv, V domains shown, Purified scFv) VH: QVQLVQSGAEVKKPGATVKLSCKVYGYIFTDYNIYWVRQAPGKGLEWMGLIDPDNGETFYAEKFQGRATMTADTSSDRAYMELTSLTFEDTATYYCATVMGKWIKGGYDYWGRGTLVTVSS VL: QSVLTQPPSVSGAPGQRVTISCTGSSSNIGAGYDVHWYQQLPGTAPKLLIYDNFNRPSGVPDRFSGSKSGTSASLAIIGLQTEDEADYYCQSYDSPTLTSPFGTGTKLTVL | 7
Antibody 12 scFv (scFv, V domains shown, Purified scFv) VH: QVQLVQSGAEVKKPGATVKLSCKVYGYIFTDYNIYWVRQAPGKGLEWMGLIDPDNGETFYAEKFQGRATMTADTSSDRAYMELTSLTFEDTATYYCATVMGKWIKGGYDYWGRGTLVTVSS VL: QSVLTQPPSVSGAPGQRVTISCTGSSSNIGAGYDVHWYQQLPGTAPKLLIYDNFNRPSGVPDRFSGSKSGTSASLAIIGLQTEDEADYYCQSYDSSIDHSPFGTGTKLTVL | 7
Antibody 13 scFv (scFv, V domains shown, Purified scFv) VH: QVQLVQSGAEVKKPGATVKLSCKVYGYIFTDYNIYWVRQAPGKGLEWMGLIDPDNGETFYAEKFQGRATMTADTSSDRAYMELTSLTFEDTATYYCATVMGKWIKGGYDYWGRGTLVTVSS VL: QSVLTQPPSVSGAPGQRVTISCTGSSSNIGAGYDVHWYQQLPGTAPKLLIYDNFNRPSGVPDRFSGSKSGTSASLAIIGLQTEDEADYYCQSYDSNILYSPFGTGTKLTVL | 7
Antibody 14 scFv (scFv, V domains shown, Purified scFv) VH: QVQLVQSGAEVKKPGATVKLSCKVYGYIFTDYNIYWVRQAPGKGLEWMGLIDPDNGETFYAEKFQGRATMTADTSSDRAYMELTSLTFEDTATYYCATVMGKWIKGGYDYWGRGTLVTVSS VL: QSVLTQPPSVSGAPGQRVTISCTGSSSNIGAGYDVHWYQQLPGTAPKLLIYDNFNRPSGVPDRFSGSKSGTSASLAIIGLQTEDEADYYCQSYDSHHRHSPFGTGTKLTVL | 15
Antibody 15 scFv (scFv, V domains shown, Purified scFv) VH: QVQLVQSGAEVKKPGATVKLSCKVYGYIFTDYNIYWVRQAPGKGLEWMGLIDPDNGETFYAEKFQGRATMTADTSSDRAYMELTSLTFEDTATYYCATVTLKTAKGGYDYWGRGTLVTVSS VL: QSVLTQPPSVSGAPGQRVTISCTGSSSNIGAGYDVHWYQQLPGTAPKLLIYDNFNRPSGVPDRFSGSKSGTSASLAIIGLQTEDEADYYCQSYDSHKGYGGFGTGTKLTVL | 172
Antibody 16 scFv (scFv, V domains shown, Purified scFv) VH: QVQLVQSGAEVKKPGATVKLSCKVYGYIFTDYNIYWVRQAPGKGLEWMGLIDPDNGETFYAEKFQGRATMTADTSSDRAYMELTSLTFEDTATYYCATVSLKSAKGGYDYWGRGTLVTVSS VL: QSVLTQPPSVSGAPGQRVTISCTGSSSNIGAGYDVHWYQQLPGTAPKLLIYDNFNRPSGVPDRFSGSKSGTSASLAIIGLQTEDEADYYCQSYDSRHHHAPFGTGTKLTVL | 63
Antibody 17 scFv (scFv, V domains shown, Purified scFv) VH: QVQLVQSGAEVKKPGATVKLSCKVYGYIFTDYNIYWVRQAPGKGLEWMGLIDPDNGETFYAEKFQGRATMTADTSSDRAYMELTSLTFEDTATYYCATVTLKSAKGGYDYWGRGTLVTVSS VL: QSVLTQPPSVSGAPGQRVTISCTGSSSNIGAGYDVHWYQQLPGTAPKLLIYDNFNRPSGVPDRFSGSKSGTSASLAIIGLQTEDEADYYCQSYDSQSSTSPFGTGTKLTVL | 109
Antibody 18 scFv (scFv, V domains shown, Purified scFv) VH: QVQLVQSGAEVKKPGATVKLSCKVYGYIFTDYNIYWVRQAPGKGLEWMGLIDPDNGETFYAEKFQGRATMTADTSSDRAYMELTSLTFEDTATYYCATVLLRSAKGGYDYWGRGTLVTVSS VL: QSVLTQPPSVSGAPGQRVTISCTGSSSNIGAGYDVHWYQQLPGTAPKLLIYDNFNRPSGVPDRFSGSKSGTSASLAIIGLQTEDEADYYCQSYDSHLQLSPFGTGTKLTVL | 110
Antibody 21 scFv (scFv, V domains shown, Purified scFv) VH: QVQLVQSGAEVKKPGATVKLSCKVYGYIFTDYNIYWVRQAPGKGLEWMGLIDPDNGETFYAEKFQGRATMTADTSSDRAYMELTSLTFEDTATYYCATVTLKSAKGGYDYWGRGTLVTVSS VL: QSVLTQPPSVSGAPGQRVTISCTGSSSNIGAGYDVHWYQQLPGTAPKLLIYDNFNRPSGVPDRFSGSKSGTSASLAIIGLQTEDEADYYCQSYDSSSQLSPFGTGTKLTVL | 65
Antibody 22 scFv (scFv, V domains shown, Purified scFv) VH: QVQLVQSGAEVKKPGATVKLSCKVYGYIFTDYNIYWVRQAPGKGLEWMGLIDPDNGETFYAEKFQGRATMTADTSSDRAYMELTSLTFEDTATYYCATVTLKSAKGGYDYWGRGTLVTVSS VL: QSVLTQPPSVSGAPGQRVTISCTGSSSNIGAGYDVHWYQQLPGTAPKLLIYDNFNRPSGVPDRFSGSKSGTSASLAIIGLQTEDEADYYCQSYDSSGGYAPFGTGTKLTVL | 68
Antibody 23 scFv (scFv, V domains shown, not shown: small tags and cut ends, Purified scFv) VH: QVQLVQSGAEVKKPGATVKLSCKVYGYIFTDYNIYWVRQAPGKGLEWMGLIDPDNGETFYAEKFQGRATMTADTSSDRAYMELTSLTFEDTATYYCATVMGKWIKGGYDYWGRGTLVTVSS VL: QSVLTQPPSVSGAPGQRVTISCTGSSSNIGAGYDVHWYQQLPGTAPKLLIYDNFNRPSGVPDRFSGSKSGTSASLAIIGLQTEDEADYYCQSYDSHHLYSSFGTGTKLTVL | 6
Antibody 24 scFv (scFv, V domains shown, not shown: small tags and cut ends, Purified scFv) VH: QVQLVQSGAEVKKPGATVKLSCKVYGYIFTDYNIYWVRQAPGKGLEWMGLIDPDNGETFYAEKFQGRATMTADTSSDRAYMELTSLTFEDTATYYCATVTLKTAKGGYDYWGRGTLVTVSS VL: QSVLTQPPSVSGAPGQRVTISCTGSSSNIGAGYDVHWYQQLPGTAPKLLIYDNFNRPSGVPDRFSGSKSGTSASLAIIGLQTEDEADYYCQSYDSRNGYGGFGTGTKLTVL | 111
